PMC8740702

The substances below were run against X. citri VirD4 all-alpha domain (VirD4AAD) (Xanthomonas citri) (assay: SEC-MALS).

Substance | stoichiometry N
XAC2609_(XVIPCD)Δ20 (residues 311–411) (from UniProt A0AAI7ZGC7 311-411) (domain or fragment) | 1
X-Tfe^XAC2609 XVIPCD (XAC2609_(XVIPCD), residues 311–431) (from UniProt A0AAI7ZGC7 311-431) (domain or fragment) | 1

What follows are substances tested against X. citri VirD4 all-alpha domain (VirD4AAD) (Xanthomonas citri) (assay: ITC).

Substance | Kd
XAC2609_(XVIPCD) D383A/P384A (from UniProt A0AAI7ZGC7 311-431) (domain or fragment) | 28 µM
XAC2609_(XVIPCD) H315A/P316A/D317A (from UniProt A0AAI7ZGC7 311-431) (domain or fragment) | 1.2 µM
XAC2609_(XVIPCD) D363A (from UniProt A0AAI7ZGC7 311-431) (domain or fragment) | 29 µM
full-length X-Tfe^XAC2609 (from UniProt A0AAI7ZGC7 1-431) (natural protein) | 0.4 µM
